Laboratory results published in patent publication US7037670B2, “Peptide substrates for assay of extracellular signal-regulated protein kinase 1 and 2 activity” (Board of Supervisors of Louisiana State University and …, priority 2002, dated 2006).
Like-named read-outs stand apart in the source and are kept apart here. Ends that are not written are not given here.

How the values were obtained:
ERK2 [1] = target: T1, ERK2 (Rattus norvegicus, UniProt P63086); assay: Phosphorylation of TH Ser31-containing peptides by purified, recombinant, activated ERK2; type: biochemical; conditions: for RELATIVE 32P INCORPORATION (% 3.3 μmol/min/mg): substrate 1 mM, median of three determinations; for RELATIVE 32P INCORPORATION (% 3.0 μmol/min/mg) Mean: mean of four determinations
Text: Materials: Purified peptides were obtained from Sigma (St. Louis, Mo.) or custom synthesized by Louisiana State University Health Science Center Core Laboratories (New Orleans La.). Purified, activated ERK1 was a gift from Dr. M. H. Cobb (University of Texas Southwestern Medical Center, Dallas, Tex.). Purified, recombinant, activated ERK2 was a gift from Dr. N. G. Ahn (University of Colorado, Boulder, Colo.). Except as indicated below, other materials were purchased from Sigma. The new synthetic peptides modeled after […] in human tyrosine hydroxylase are indicated. ERK activity assays: Aliquots of supernatants or ERK1/2 immunoprecipitates (suspended in lysis solution) were mixed with substrate (1 mM final, unless stated otherwise) at 4° C. Phosphorylation reactions were initiated by addition of an equal volume of assay buffer containing [γ-^32P]ATP (NEN Life Sciences Products, now PerkinElmer Life Sciences, Boston, Mass.) and Mg^++ and allowed to proceed for 10 min at 30° C., after which duplicate 20 μl aliquots were spotted onto Whatman P81 paper. As would be predicted by the presence of multiple basic residues in the peptides, the ability of P81 paper to bind >90% of each of the peptides used in Tables 2 and 3 was confirmed by UV detection following RP-HPLC. The final reaction mixtures (50 μl) contained 50 mM β-glycerophosphate, 10 mM MgCl2, 1 mM EGTA, 1 mM dithiothreitol, 1 mM benzamidine, 0.1 mM ATP, 0.1 mM Na3VO4, 10 μM calmidazolium, 2 μM peptide inhibitor of cyclic AMP-dependent protein kinase ([…] ID NO: 24), 10 μg/ml leupeptin, and 0.025% Tween 20. Table 3 indicates the relative phosphorylation of TH-[…]-containing peptides by purified ERK2. […] These new substrates were assayed for the relative phosphorylation by purified ERK2 similar to the experiments that generated Table 3.

ERK2 [2] = target: T1, ERK2; assay: Steady-state kinetic analyses of peptide substrates for ERK2; type: biochemical; conditions: for Kmin(app) / Vmax(app) Relative: median of three determinations; for Vmax(app) Relative: relative values
Protocol: (§1) ERK activity assays: Aliquots of supernatants or ERK1/2 immunoprecipitates (suspended in lysis solution) were mixed with substrate (1 mM final, unless stated otherwise) at 4° C. Phosphorylation reactions were initiated by addition of an equal volume of assay buffer containing [γ-^32P]ATP (NEN Life Sciences Products, now PerkinElmer Life Sciences, Boston, Mass.) and Mg^++ and allowed to proceed for 10 min at 30° C., after which duplicate 20 μl aliquots were spotted onto Whatman P81 paper. As would be predicted by the presence of multiple basic residues in the peptides, the ability of P81 paper to bind >90% of each of the peptides used in Tables 2 and 3 was confirmed by UV detection following RP-HPLC. The final reaction mixtures (50 μl) contained 50 mM β-glycerophosphate, 10 mM MgCl2, 1 mM EGTA, 1 mM dithiothreitol, 1 mM benzamidine, 0.1 mM ATP, 0.1 mM Na3VO4, 10 μM calmidazolium, 2 μM peptide inhibitor of cyclic AMP-dependent protein kinase ([…], SEQ ID NO: 24), 10 μg/ml leupeptin, and 0.025% Tween 20.
In Table 5, each value represents the median of three independent determinations, performed in duplicate. […] See I. Kameshita et al., 1997. […] 355, pp. 5641-5646 (1996); see also C. N. Prowse et al., “Catalytic reaction pathway for the mitogen-activated protein kinase ERK2,” Biochem., vol. 39, pp. 6258-6266 (2000).

ERK1 = ERK1 (Rattus norvegicus, UniProt P21708); assay: Phosphorylation of substrates by purified, activated ERK1 (32P incorporation, P81 paper); type: biochemical; conditions: for RELATIVE 32P INCORPORATION (% OF MBP): peptides 1 mM, MBP 20 μM, 10 min at 30° C., median of three determinations
Text: Materials: Purified peptides were obtained from Sigma (St. Louis, Mo.) or custom synthesized by Louisiana State University Health Science Center Core Laboratories (New Orleans La.). Purified, activated ERK1 was a gift from Dr. M. H. Cobb (University of Texas Southwestern Medical Center, Dallas, Tex.). Purified, recombinant, activated ERK2 was a gift from Dr. N. G. Ahn (University of Colorado, Boulder, Colo.). Except as indicated below, other materials were purchased from Sigma. The new synthetic peptides modeled after Ser31 in human tyrosine hydroxylase are indicated.
as §1
To test the effectiveness of various peptide substrates, peptide substrates were compared with myelin basic protein (“MBP,” SEQ ED NO: 1) for relative ability to be phosphorylated by purified ERK1 or ERK2. The ERK activity assay was as described above in Example 1. In Table 2, each value represents the median of three independent determinations, performed in duplicate. While all peptides were assayed at a concentration of 1 mM, MBP phosphorylation—given as a frame of reference at a concentration typically used in such assays—was assayed at 20 μM. ^32P incorporation into MBPtide (SEQ ID NO: 2) was 330 nmol/min/mg under the assay conditions used.

MAP kinase = conditions: reported, Kameshita et al., 1997; cited from earlier work
ERK1/2 = assay: In vitro kinase assay on PC12 cellular extracts with no further purification (with and without nerve growth factor); type: biochemical, rat; conditions: for pattern and degree of ERK activation over time compared with ERK immunoprecipitation and blot immunolabeling assays: PC12 cells with and without NGF, up to 480 min, extracts without purification; for levels of protein kinase activity in cellular extracts: PC12 extracts, no kinase purification, EGTA, calmidazolium, cAMP-dependent protein kinase inhibitor present
Protocol: Cells were treated with or without added 100 ng/ml 7S nerve growth factor for up to 8 h. One group of cells was harvested for blot immunolabeling and solubilized with sodium dodecyl sulfate solution, as described in J. W. Haycock, “Multiple forms of tyrosine hydroxylase in human neuroblastoma cells: Quantitation with isoform-specific antibodies,” J. Neurochem., vol. […] A second group of cells was harvested for kinase assays and subjected to trituration in an ice-cold lysis solution of 50 mM β-glycerophosphate, 1 mM EGTA, 1 mM dithiothreitol, 1 mM benzamidine (Eastman Kodak Co., Rochester, N.Y.), 0.1 mM Na3VO4, 10 μg/ml leupeptin, and 0.05% Tween 20. Supernatants from the latter samples were generated by sonication and centrifugation (20 min at 10,000×g) in a refrigerated centrifuge (Savant, Farmingdale, N.J.). In some experiments, ERK1/2 was isolated prior to assaying kinase activity by immunoprecipitation of the PC12 cellular extracts with anti-pan ERK1/2 and protein A-Sepharose. […] ERK activity assays: Aliquots of supernatants or ERK1/2 immunoprecipitates (suspended in lysis solution) were mixed with substrate (1 mM final, unless stated otherwise) at 4° C. Phosphorylation reactions were initiated by addition of an equal volume of assay buffer containing [γ-^32P]ATP (NEN Life Sciences Products, now PerkinElmer Life Sciences, Boston, Mass.) and Mg^++ and allowed to proceed for 10 min at 30° C., after which duplicate 20 μl aliquots were spotted onto Whatman P81 paper. […] Experiments were conducted to test the ability of different substrates to assay for activation of ERK1/2 in situ. […] Cells were harvested and-assayed for ERK1/2 activity by various methods.

ERK2 [3] = target: T1, ERK2; conditions: described previously by Robinson et al., 1996; cited from earlier work
ERK2 [4] = target: T1, ERK2; conditions: stated for MBP protein as contrast to the peptides; cited from earlier work

Chain of ERK1 (P21708 2-380 limits assumed): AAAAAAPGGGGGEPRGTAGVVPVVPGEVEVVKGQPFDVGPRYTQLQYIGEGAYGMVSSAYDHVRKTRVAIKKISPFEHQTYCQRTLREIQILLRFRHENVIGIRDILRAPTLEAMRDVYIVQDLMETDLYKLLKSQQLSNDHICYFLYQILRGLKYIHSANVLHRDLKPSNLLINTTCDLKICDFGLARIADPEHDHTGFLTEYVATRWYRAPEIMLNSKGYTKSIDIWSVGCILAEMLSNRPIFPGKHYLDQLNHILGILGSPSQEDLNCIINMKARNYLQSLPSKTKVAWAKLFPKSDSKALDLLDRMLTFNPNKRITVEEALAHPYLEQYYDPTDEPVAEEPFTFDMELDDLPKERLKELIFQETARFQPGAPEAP
T1 sequence (P63086 2-358 limits assumed): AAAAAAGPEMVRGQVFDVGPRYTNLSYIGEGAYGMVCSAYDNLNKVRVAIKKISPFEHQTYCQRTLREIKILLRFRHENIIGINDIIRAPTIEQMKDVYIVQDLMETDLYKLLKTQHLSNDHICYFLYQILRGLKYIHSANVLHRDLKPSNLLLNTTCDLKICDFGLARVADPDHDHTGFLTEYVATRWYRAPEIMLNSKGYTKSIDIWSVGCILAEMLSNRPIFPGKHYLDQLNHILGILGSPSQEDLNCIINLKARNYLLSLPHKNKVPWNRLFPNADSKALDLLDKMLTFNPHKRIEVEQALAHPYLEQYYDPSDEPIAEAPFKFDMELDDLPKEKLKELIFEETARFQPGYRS

Molecule | RELATIVE 32P INCORPORATION (% 3.3 μmol/min/mg) (ERK2 [1]) | RELATIVE 32P INCORPORATION (% OF MBP) (ERK1) | RELATIVE 32P INCORPORATION (% 3.0 μmol/min/mg) Mean (ERK2 [1]) [% 3.0 μmol/min/mg] | other results
EAIMSPRFK (This sequence is based on TH-31 type 1 HUMAN.) [SEQ ID NO: 10] | 21 | – | – | Kmin(app) (ERK2 [2]): 1.4 mM; Vmax(app) Relative (ERK2 [2]): 42
KQAEAVTSPR (This sequence is based on TH-Ser31 (rat).) [SEQ ID NO: 7] | 7 | 5 | – | Kmin(app) (ERK2 [2]): 1.8 mM; Vmax(app) Relative (ERK2 [2]): 9
APRTPGGRR (This sequence is MBPtide (Thr 97).) [SEQ ID NO: 2] | – | 28 | – | Km (MAP kinase): 1600 µM; pattern and degree of ERK activation over time compared with ERK immunoprecipitation and blot immunolabeling assays (ERK1/2): differed; levels of protein kinase activity in cellular extracts (ERK1/2): Higher levels of protein kinase activity; 32P incorporation (ERK1; peptide 1 mM, assay conditions of Table 2): 330 nmol/min/mg; Kmin(app) (ERK2 [2]): 2.0 mM; Vmax(app) Relative (ERK2 [2]): 46
PTPSAPSPQPK (This sequence is TH (rat) Ser8.) [SEQ ID NO: 4] | – | <1 | – | –
AVTSPRFIGRR (This sequence is based on TH-Ser31 (rat).) [SEQ ID NO: 8] | 9 | – | – | –
GRRQSLIEDAR (This sequence is TH (rat) Ser40.) [SEQ ID NO: 6] | – | <1 | – | –
RRAVSEQDAK (This sequence is TH (rat) Ser19.) [SEQ ID NO: 5] | – | <1 | – | –
RRELVEPLTPSGEA (This sequence is EGF Receptor (Thr669).) [SEQ ID NO: 3] | – | 13 | – | –
ATGPLSPGPFGRR (ATGPLSPFGRR; This sequence is ERKtide.) [SEQ ID NO: 23] | – | – | – | pattern and degree of ERK activation over time compared with ERK immunoprecipitation and blot immunolabeling assays (ERK1/2): faithfully reproduced; apparent Vmax (ERK2 [2]): 9.4 µmol/min/mg; Kmin(app) (ERK2 [2]): 0.6 mM; Vmax(app) Relative (ERK2 [2]): 82; Km (ERK2 [3]): 450 µM
EAVTSPRFIGRR (This sequence is based on TH-Ser31 (rat).) [SEQ ID NO: 9] | 20 | – | – | –
. . . KNIVTPRTPPPS . . . (protein, listed as Bos taurus) AAQKRPSQRSKYLASASTMDHARHGFLPRHRDTGILDSLGRFFGSDRGAPKRGSGKDGHHAARTTHYGSLPQKAQGHRPQDENPVVHFFKNIVTPRTPPPSQGKGRGLSLSRFSWGAEGQKPGFGYGGRASDYKSAHKGLKGHDAQGTLSKIFKLGGRDSRSGSPMARR | – | 100 | – | pattern and degree of ERK activation over time compared with ERK immunoprecipitation and blot immunolabeling assays (ERK1/2): differed; levels of protein kinase activity in cellular extracts (ERK1/2): Higher levels of protein kinase activity; Km (ERK2 [4]): 10 to 50 µM

Continued, in another order:

RELATIVE 32P INCORPORATION (% 3.3 μmol/min/mg) (ERK2 [1]) | RELATIVE 32P INCORPORATION (% OF MBP) (ERK1) | RELATIVE 32P INCORPORATION (% 3.0 μmol/min/mg) Mean (ERK2 [1]) [% 3.0 μmol/min/mg] | Molecule | other results
1 | – | – | YIMVRGQSPR (This sequence is based on TH-Ser31 type 2 HUMAN.) [SEQ ID NO: 21] | –
2 | – | – | EAIMVRGQSPRFK (This sequence is based on TH-Ser31 type 2 HUMAN.) [SEQ ID NO: 22] | –
– | – | 143 | QATGPLSPGPFRR-NH2 [SEQ ID NO: 17] | –
41 | – | – | EAIMSPRFIGRR (This sequence is based on TH-31 type 1 HUMAN.) [SEQ ID NO: 12] | –
– | – | 182 | QATGPLSPGFRR-NH2 [SEQ ID NO: 19] | –
29 | – | – | AIMSPRFIGRR (This sequence is based on TH-31 type 1 HUMAN.) [SEQ ID NO: 11] | –
100 | – | 117 | YQAEAIMSPRFIGRR-NH2 [SEQ ID NO: 14] | –
– | – | 215 | YQATGPLSPGFRR-NH2 [SEQ ID NO: 18] | –
– | – | 107 | QAEAIMSPRFGRR-NH2 [SEQ ID NO: 15] | –
80 | – | 100 | YQAEAIMSPRFIGRRQ (This sequence is new and based on TH-31 type 1 HUMAN.) [SEQ ID NO: 13] | pattern and degree of ERK activation over time compared with ERK immunoprecipitation and blot immunolabeling assays (ERK1/2): faithfully reproduced; Kmin(app) (ERK2 [2]): 1.0 mM
1 | – | – | IMVRGQSPR (This sequence is based on TH-Ser31 type 2 HUMAN.) [SEQ ID NO: 20] | –
– | – | 164 | YQATGPLSPGPFRR-NH2 [SEQ ID NO: 16] | –
